For one molecule, Kd results are on record in patent CN116574180A.

The target of this experiment is 生物素标记的抗原多肽 (biotin-labelled human collagen IV α1 chain peptide, synthesised by GenScript) (human). Nature of the experiment: BLI (Fortebio Octet); biotinylated peptide on SA biosensor, antibody at 100-1.56 nM. (In general: Biolayer interferometry detects binding as a change in optical thickness at a sensor tip.)

B1: 8A12D2-2 (antibody, V domains shown)
VH: EVQLQQSGAELVKPGASVKLSCTASGFNIKDHYMHWVKQRTKQGLEWIGRIDPEDGKTNSAPEFQDKATITSDISSNTVYLQLYSLTSEDTAVYYCAYSNFGFAYWGRGTLVTVSA
VL: DIVMTQAAFSNPVTLGTSTSISCRSSRSLLHSNGITYLYWYLQKPGQSPQLLIYQMSSLASGVPDRFSANGSGTDFTLRISRVEAEDVGVYYCAQKLGLPYTFGGGTKLEIK
Turning to B1, the Kd (commonly the constant that tells how readily two partners part at equilibrium) turned out to be 0.376 nM.
